Experimental data published in patent US20230382979A1 (ADAPTIVE BIOTECHNOLOGIES, published 2023).

Tests used:
[1] = molecular target: SARS-CoV-2 spike protein, WA1/2020, borne on lentiviral pseudovirus (SARS-CoV-2, WA01/2020 strain, UniProt P0DTC2 14-1273); assay: cell-based or functional assay
[2] = molecular target: S2 subunit of the SARS-CoV-2 spike protein, WA01/2020 strain (SARS-CoV-2, WA01/2020 strain, UniProt P0DTC2 686-1213); assay: ELISA, antibody at 0.1 ug/mL
[3] = molecular target: T1, SARS-CoV-2 nucleocapsid (N) protein (SARS-CoV-2, UniProt P0DTC9 1-419); assay: ELISA, antibody at 0.1 ug/mL
[4] = molecular target: S1 subunit of the SARS-CoV-2 spike protein, WA01/2020 strain (SARS-CoV-2, WA01/2020 strain, UniProt P0DTC2 16-685); assay: ELISA screening, antibody concentration not given
[5] = molecular target: T1, SARS-CoV-2 nucleocapsid (N) protein; assay: ELISA screening, antibody concentration not given

| Binder | Pseudo Neut, WA1/2020 IC50 (pM) [1] | binding result [2] | binding result [3] | binding result [4] | binding result [5] |
| --- | --- | --- | --- | --- | --- |
| antibody 980 (antibody, V domains shown) VH: QVQLVESGGGVVQPGRSLRLSCAASGFTFSRYGMHWVRQAPGKGLEWVALISSGGSNKYYADSVKGRFTISRDNSKNTLYLEMNSLRAEDTAVYYCAKDAIYDYIWGAYRENWFDPWGQGTLVTVSS VL: DIQMTQSPSSLSASVGDRVTITCRASQSISNYLNWYQQKPGKAPNLLIYAASSLQSGVPSRFSGSGSGTDFTLTISSLQPEDFATYYCQQTSSPPLTFGQGTKVEIK | 952 pM | no binding (tested: 0.1 ug/mL) | no binding (tested: 0.1 ug/mL) | – | – |
| antibody 2619 (antibody, V domains shown) VH: EVQLVESGGGLVQPGRSLRLSCAASGFTFDDYAMHWVRQAPGKGLEWVSGISWNSGSIGYADSVKGRFTLSRDNAKNSLFLQMDSLRAEDTALYYCAKDVSYRSGSYYRFWGGSGSWGQGTLVTVSS VL: DIQMTQSPSSLSASVGDRVTITCRASLSIRSYLNWYQQKPGKPPKLLIYAASSLQSGVPSRFSGSGSGTDFTLTISSLQPEDFATYYCQQSYSTPLTFGGGTKVEIK | 213 pM | – | – | – | – |
| antibody 2729 (antibody, V domains shown) VH: QVTLKESGPVLVKPTETLTLTCTVSGFSLSNARMGVSWIRQPPGKALEWLAHIFSNDEKSYSTYLKSRLTISKDSSKSQVVLTMTIMDPVDTATYYCARTAGRYSSRWGHYYYYMDVWGKGTTVTVSS VL: NFMLTQPHSVSESPGKTVTISCTGSNGSIASNFMQWYQQRPGSAPTIVIYEDNQRPSGVPDRFSGSIDGSSNSASLTISGLKTEDEADYYCQSYDSSDSDLGVFGGGTKLTVL | 584 pM | no binding (tested: 0.1 ug/mL) | no binding (tested: 0.1 ug/mL) | – | – |
| antibody 1213 (antibody, V domains shown) VH: QMQLVQSGAEVKKTGSSVKVSCEASENTFTNRYLHWVRQAPGQALEWMGWITPFQGNTHYAQKFQDRVTITRDRSMNTVYMELSSLRSEDTAIYYCASGGQYGPGSYYFEFWGQGTLVTVSS VL: EIVMTQSPATLSVSPGERATLSCRASQSIRNNLAWYRQKPGQAPRLLIYGASTRAAGVPARFSGSGSGTEFTLTISSLQSEDFAVYYCQQYINWPPLTFGGGTKVEIK | 90600 pM | – | – | – | – |
| antibody 1227 (antibody, V domains shown) VH: QMQLVQSGAEVKKTGSSVKVSCEASGYTFTNRYLHWVRQAPGQALEWMGWITPFQGNTNYAQKFQDRVTITRDMSMNTVYMELSSLRSEDTAKYYCASGGQYGAGSYYLEDWGQGTLVTVSS VL: EIVMTQSPATLSVSPGERATLSCRASQSVRSNLAWYRQKPGQAPRLLIYGASTRATGVPARFSGSGSGTEFTLTISSLQSEDFAVYYCQQYINWPPLTFGGGTRVEIK | 116000 pM | – | – | – | – |
| antibody 2706 (antibody, V domains shown) VH: QVQLVQSGAEVKKPGSSVKVSCKASGGTFSTYAISWVRQAPGQGLEWMGGIIPLFATANYAQNFQGRVTITADKSTSTAYMELSSLRSEDTAVYYCASVRLHLEELSLSHQGDYYYGLDVWGQGTTVTVSS VL: DIQMTQSPSSLSASVADRVTITCQASQDISHYLNWYQQKPGKAPQLLIYDASKLETGAPSRFSGSGSGTDFTFTISSLQPEDIATYYCQQYDHLPLTFGGGSKVEIK | 795 pM | no binding (tested: 0.1 ug/mL) | no binding (tested: 0.1 ug/mL) | – | – |
| antibody 1231 (antibody, V domains shown) VH: QVQLVQSGSELKKPGASVKVSCTGYGYTFTSYAMNWVRQAPGQGLEWMGWINTNTGHPAYAQGFTGRFVFSLDSSVSTAYLQISSLKAEDTAVYYCATTIRAGGYFDFWGQGTLVTVSS VL: DIQLTQSPSFLSASVGDRVTITCRASQGISSYLAWFQQKPGKAPKLLIYVVSILQSGVPSRFSGSGSGTEFTLTISSLQPEDFATYYCQQLNSYPYTFGQGTKLEIK | 95000 pM | – | – | – | – |
| antibody 935 (antibody, V domains shown) VH: EVQLVESGGGLVQPGGSLRLSCAASGFTVSSNYMSWVRQAPGKGLEWVSVIYSGGSTFYADSVKGRFTISRDNSRNTLYLQMNSLRAEDTAVYYCARDWGEFFFDFWGQGALVTVSS VL: EIVLTQSPGTLSLSPGERATLSCRASQTISSSYLAWYQQKPGQAPRLLISGASSRATGIPDRFSGSGSGTDFTLTISRLEPEDFAVYYCQQYGSSPRTFGQGTNVEIK | 420 pM | – | – | – | – |
| antibody 4441 (antibody, V domains shown) VH: EVQLVESGGGLVQPGRSLRLSCAASGLTFEDYAMHWVRQPPGKGLEWVSGVSWNSGTIGYADSVKGRFTISRDNAKNSLYLHMRSLGAEDTAMYYCAKDMGGRFSFFSLENDAFDIWGQGTMVIVSS VL: SYELTQPPSVSVSPGQTARITCSGDALPKQSTYWYQQKPGQAPVLVIYKDIERPSGIPERFSGSSSGTTVTLTISGVQAEDEADYYCQSADSSDTYVFGTGTKVTVL | 276 pM | no binding (tested: 0.1 ug/mL) | no binding (tested: 0.1 ug/mL) | – | – |
| antibody 2892 (antibody, V domains shown) VH: QVQLVQSGAEVKKPGSSVKVSCKASGDAFISYAISWVRQAPGQGLEWMGGIIPIFGTANYAQKFQGRVTISADESTSTAYMELSRLRSEDTAVYYCARGGPEPYGSGSGYTPRYNWFDPWGQGTLVTVSS VL: QSALTQPRSVSGSPGQSVTISCTGTSSDVGGYNYVSWYQQHPGKAPKFMIYDVNRRPSGVPDRFSGSKSGNTASLTISGLQAEDEADYYCCSYAGTYTWVFGGGTKLTVL | 65 pM | no binding (tested: 0.1 ug/mL) | no binding (tested: 0.1 ug/mL) | – | – |
| antibody 2020 (antibody, V domains shown) VH: QVQLVQSGAEVKKPGASVKVSCKASGYTFTDYFMHWVRQAPGQGLEWMGWVNPLSGGTNFAQKFQGRVTMTSDTSITTVYMELSRLRSDDTAVYYCARDPPLYSSTYGMDVWGQGTTVTVSS VL: QSALTQPASVSGSPGQSITISCTGTSSDVGAYNYVSWYQQHPGKAPKLMIYDVSDRPSGVSNRFSGSKSGNTASLTISGLQAEDEADYYCSSYTISSSVVFGGGTKLTVL | 214 pM | no binding (tested: 0.1 ug/mL) | no binding (tested: 0.1 ug/mL) | – | – |
| antibody 1679 (antibody, V domains shown) VH: QITLKESGPTLVKPTQTLTLTCTFSGFSLSTVGVGVAWIRQPPGKALEWLALIYWDDDKRYSPSLKSRLTITKDTSKNHVVLTMTNMDPVDTATYYCAHHIIAALVDVWGKGTTVTVSS VL: QSALTQPASVSGSPGQSITISCTGTSSDVGGNNYVSWYQHHPGEAPKLMIYEVSNRPSGVSNRFSGSKSGNTASLTISGLQAEDEADYYCSSYTTSSTLVVFGGGSKLTVL | > 163 pM | – | – | – | – |
| antibody 1826 (antibody, V domains shown) VH: QVQLQESGPGLVKPSETLSLTCSVTGGSTNYYYWSWIRQPPGKGLEWIGYIYYSGTTNYNPSLKDRVTMSVDKSKTQLSLKLNSVTAADTAVYYCARHARHCTNGVCQTYYYYGLDVWGLGTTVAVSA VL: QSVLTQPPSVSAAPGQRVTISCSGSSSNIGAGYDVHWYQHLPGTAPKLLIYNNNNRPSGVPDRFSASRSGTSASLAITGVQTEDEADYYCQSFDGRLSESGVFGGGTKLTVL | – | – | – | no binding (tested: not printed) | no binding (tested: not printed) |
| antibody 3086 (antibody, V domains shown) VH: QVQLQESGPGLVKPSETLSLTCTVSGGSISGHYWSWIRQPPGKGLEWIGYIYYSGSTNYNPSLKSRVTISVDTSVNQFSLKLSSVTAADTAVYYCARQEARDAVGNYFFDSWGQGTLVTVSS VL: QSALTQPASVSGSPGQSITISCSGTSSDIGSYDLVSWYQQHPGKAPKLLIYDVTKRPSGVSHRFSGSKSGNTASLTISGLQGEDEADYYCCSYVHFSTWVFGGGTKLTVL | 82 pM | – | – | – | – |
| antibody 1864 (antibody, V domains shown) VH: QVQLQESGPGLVKPSETLSLTCTVSGGSINYYYWSWIRQPPGKGLEWIGFIYSSGTTNYNPSLKSRVTMSVDSSKSQFSLKLSSVTAADSAVYYCARHSRSCTNGVCQTYYYYALDVWGHGTTVTVSS VL: QSVLTQPPSVSGAPGQRVTISCTGSSSNIGAGYDVHWYQQLPGTAPKLLIYGNSNRPSGVPDRFSASKSGTSASLAIAGLQPEDEGDYYCQSYDGSLSESGVFGGGTRLTVL | – | – | – | no binding (tested: not printed) | no binding (tested: not printed) |
| antibody 1870 (antibody, V domains shown) VH: QVQLQESGPGLVKPSETLSLTCSVSGGSINYYYWSWIRQPPGKGLEWIGFIYSSGTTNYNPSLKSRVTMSVDTSKNQFSLKLSSVTAADSAVYYCARHSRSCTNGVCQTYYYYALDVWGHGTTVTVSS VL: QSVLTQPPSVSGAPGQRVTISCTGSSSNIGAGYDVHWYQQLPGTAPKLLIYGNSNRPSGVPDRFSASKSGTSASLAIAGLQAEDEGDYYCQSYDGSLSESGVFGGGTRLTVL | – | – | – | no binding (tested: not printed) | no binding (tested: not printed) |
| antibody 1851 (antibody, V domains shown) VH: QVQLQESGPGLVKPSETLSLTCTVSGGSINYYYWSWIRQSPGKGLEWIGFIYSSGTTNYNPSLKSRVTMSVDSSKSQFSLKLSSVTAADSAVYYCARHSRSCTNGVCQTYYYYALDVWGHGTTVTVSS VL: QSVLTQPPSVSGAPGQRVTISCTGSSSNIGAGYDVHWYQQLPGTAPKLLIYGNSNRPSGVPDRFSASKSGTSASLAIAGLQPEDEGDYYCQSYDGSLSESGVFGGGTRLTVL | – | – | – | no binding (tested: not printed) | no binding (tested: not printed) |
